# Data taken from the RNAGym collection of RNA variant scans (doi:10.7554/elife.80360).
# B1: Hammerhead Ribozyme (parent)
# chain: ACCGGAUGUGCUUUCCGGUCUGAUGAGUCCGUGAGGACGAAACAG
# Variants of: B1
# Assay: self-cleavage, relative activity (ratio to wild type); higher = more cleavage; co-transcriptional
row,Variant,self-cleavage
1,G35A G39U,0.328
2,G25U A34G,0.261
3,G5U,0.934
4,G18U C38G,0.442
5,A26U C30A,0.507
6,G18A C20G,0.367
7,U19G G36A,0.38
8,G17C U28A,0.391
9,U12C C15A,0.565
10,G4A C15A,0.443
11,A6C G31U,0.884
12,U19C G22C,0.323
13,U14A G45U,0.715
14,U13A G18C,0.777
15,U12A G33U,1.03
16,C2G U7G,0.364
17,C38U A44G,1.44
18,U7A G18C,0.365
19,A26U G39C,0.378
20,G17C G45U,0.394
21,A26U G36U,0.446
22,G18C C38G,0.387
23,C11A C20G,0.319
24,A1C C15U,0.408

row,Variant,self-cleavage
1,G31A A41G,0.317
2,C16U G18A,0.618
3,U19A G35A,0.317
4,C11U A26G,0.335
5,C2A U7A,0.457
6,U9A G17C,0.449
7,G8A U12A,1.09
8,U9G C16G,0.456
9,A26C A42C,0.305
10,U21C G22A,0.335
11,U7C G22C,0.338
12,G31C U32A,0.908
13,U13C U32A,0.668
14,G5A A6C,0.483
15,G22U C29G,0.317
16,U9G C29U,0.713
17,G8A U21G,0.4
18,U9G A23G,0.385
19,G27U C43A,0.374
20,U28C G31C,0.769
21,U7A A40C,0.261
22,C11A G39C,0.438
23,U14A A23U,0.272
24,U13G C38A,0.434

row,Variant,self-cleavage
1,G8A C38G,0.708
2,U21C G33A,0.74
3,A1G U24A,1.78
4,C2U A42C,0.358
5,C11U G36U,0.669
6,G10U A37U,0.768
7,G10U A41G,0.372
8,U7A G22U,0.231
9,G22A A26C,0.316
10,A1C G10U,0.339
11,U19G A37U,0.339
12,U19G A37C,0.331
13,G10A C38U,1.33
14,A1U A6C,0.363
15,C3G U21C,0.413
16,U13G U21C,0.579
17,C16A C43U,0.438
18,G18U U32C,0.857
19,U24G A26C,0.373
20,A23G U24A,0.645
21,G22A A41G,0.365
22,G10A G31A,1.08
23,G10A G31C,1.16
24,C16G A23U,0.295

row,Variant,self-cleavage
1,A34U G45U,0.625
2,U13A A42C,0.314
3,A1C U28G,0.302
4,A41C A44U,0.3
5,G33U A44G,1.44
6,A42G G45U,0.354
7,U32C A42C,0.316
8,A26G A44U,0.347
9,U13G G33C,1.06
10,G17U G27C,0.486
11,C11G G33A,1.11
12,G33C A40G,0.339
13,G4U G36U,0.267
14,C29A A44U,0.407
15,C38G A40C,0.211
16,U14C A44U,0.393
17,C15U U32A,1
18,U12C U32G,0.502
19,A1C U19G,1.12
20,U28A A34U,0.678
21,G10U A40U,0.338
22,G22C G25C,0.319
23,U21C G25A,0.336
24,C11A A44G,1.57

row,Variant,self-cleavage
1,G25C G36C,0.281
2,U28G G31A,0.85
3,G25A A44G,0.64
4,A23C A42C,0.31
5,G4A A40U,0.325
6,G10C A41U,0.358
7,G8U G45U,0.826
8,A6C A42U,0.295
9,U13G C30U,0.786
10,C20G C29U,0.336
11,G39C A40G,0.331
12,A34C G36A,0.345
13,C3A U21C,0.376
14,A6G C43U,0.321
15,C16G C20U,0.408
16,G8C G31U,0.679
17,G27U A40U,0.402
18,C16U G25C,0.265
19,C15A G33A,0.921
20,C16G A34C,0.647
21,C29U A34C,0.723
22,C38A A44U,0.396
23,A1U C20U,0.333
24,G10A U24A,1.12

row,Variant,self-cleavage
1,G8U G17C,0.509
2,C20A A34G,0.341
3,C2A G22C,0.353
4,C30U G33C,0.714
5,U24C A44C,0.503
6,G8A C11G,1.18
7,G8U C38U,0.893
8,G17U G18U,0.442
9,C20U A41U,0.37
10,G4C A37C,0.328
11,C3G A40U,0.309
12,A6G G31C,0.979
13,G10A A41C,0.306
14,U7A A41C,0.407
15,U19C A37G,0.41
16,U19C A37U,0.437
17,U24G C29U,0.987
18,U9G U14G,0.991
19,C20A G45C,0.414
20,A23C C38G,0.371
21,G17A U28C,0.331
22,G5C A34C,0.336
23,C11U A44G,1.35
24,A42U C43A,0.344

row,Variant,self-cleavage
1,G8A G31A,0.849
2,G8A G39A,0.417
3,C3U G33C,0.957
4,G4A A23G,0.272
5,U7G U19A,0.398
6,G17C U21G,0.352
7,C15U C20G,0.387
8,U14C G39C,0.337
9,A23C G33U,0.659
10,G39U A44U,0.372
11,U13A C16G,1.27
12,C20G A42U,0.313
13,G17U G45U,0.589
14,U21G C38A,0.388
15,C3A G10C,0.587
16,C3U G31U,1.17
17,G35A A41G,0.328
18,C3G G39C,0.288
19,C15G A44U,0.408
20,C16A C29U,1.06
21,A1C U24C,0.34
22,U13A G39U,0.339
23,C29A G39U,0.387
